From patent US11278600B2, “Human alpha-galactosidase variants” (Codexis, Inc., priority 2014, dated 2022) come the findings set out here.

Common to all, as to format: biochemical
Series [1] can be described thus: HTP-analysis of supernatants pretreated with bovine serum (MUGal hydrolysis). To be noted: activity of the variant/activity of Rd3BB (SEQ ID NO: 13), yeast culture supernatant. An outline of the steps:
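Yeast INVSc1 culture supernatants containing secreted GLA variants were mixed with bovine serum (20:80) and held 1 h at 37° C. Serum-treated samples then reacted with MUGal (4 mM stock) in citrate/McIlvaine buffer (pH 4.3/4.8) for 180 min at 37° C., were quenched with sodium carbonate, and read by fluorescence (Ex 355, Em 448 nm).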

Series [2] can be described thus: HTP-analysis of yeast culture supernatants, no challenge (MUGal hydrolysis). To be noted: activity of the variant/activity of Rd3BB (SEQ ID NO: 13), yeast culture supernatant. An outline of the steps:
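GLA variants expressed in yeast INVSc1, secreted into SD-Ura broth over 66-84 h at 30° C; clarified supernatants tested without challenge. Supernatant mixed with McIlvaine buffer pH 4.8 and 2 mM MUGal (citrate/KCl, pH 4.6), 37° C for 30-180 min, carbonate-quenched, fluorescence Ex 355/Em 448 nm.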

Series [3] is described as follows: HTP-analysis of supernatants pretreated with base (MUGal hydrolysis). To be noted: challenge at pH 8.2; activity of the variant/activity of Rd3BB (SEQ ID NO: 13); yeast culture supernatant. An outline of the steps:
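GLA variants secreted from yeast INVSc1; culture supernatants pre-incubated with McIlvaine buffer pH 7.0–8.2 or 200 mM bicarbonate pH 9.1–9.7 at 37° C. for 1–18 h. Residual activity: MUGal (4 mM stock) hydrolysis at pH 4.3–4.8, 37° C., 30–180 min, carbonate quench; fluorescence Ex 355/Em 448 nm.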

A short description of series [4]: HTP-analysis of supernatants pretreated with acid (MUGal hydrolysis). The note with it: challenge at pH 4.0; activity of the variant/activity of Rd3BB (SEQ ID NO: 13); yeast culture supernatant. An outline of the steps: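 GLA variants were secreted from INVSc1 yeast grown 66-84 h at 30° C. in SD-Ura with 2% glucose; supernatants were mixed with McIlvaine buffer pH 3.3-4.3 and held at 37° C. for 1-3 h. Residual activity on MUGal at pH 4.8 was then measured by fluorescence.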

B1: 353 (protein)
chain: LDNGLARTPTMGWLHWERFMCNLDCQEEPDSCISEKLFMEMAERMVSEGWKDAGYEYLCIDDCWMAPQRDSEGRLQADPQRFPHGIRQLANYVHSKGLKFGIYADVGNKTCAGFPGSFGYYDIDAQTFADWGVDLLKFDGCYCDSLENLADGYKHMSLALNRTGRSIVYSCEWPLYMWPFQKPNYTEIRQYCNHWRNFADIDDSWASIKSILDWTSFNQETIVDVAGPGGWNDPDMLVIGNFGLSWNQQVTQMALWAIMAAPLFMSNDLRHISPQAKALLQDKDVIAINQDPLGKQGYQLRQGDNFEVWERPLSGLAWAVAIINRQEIGGPRSYTIAVASLGKGVACNPACFITQLLPVKRKLGLYNWTSRLKSHVNPTGTVLLQLENTMQMSLKDLL
modifications: Synthetic Polypeptide sequence of Variant No. 353 of mature Human GLA
For B1, the “Relative Activity of GLA Variants After Challenge with Serum” value (“Relative Activity … with Serum” below) in series [1] is “+ (+ = 0.5 to 1.5 relative activity over Rd3BB (SEQ ID NO: 13))”. Further, in series [2], the “Relative Activity of GLA Variants After No Challenge (NC)” value is on record as “− (− = <0.5 relative activity to Rd3BB (SEQ ID NO: 13))”. Moreover, the “Relative Activity of GLA Variants After Challenge at pH 8.2” value (from here on “Relative Activity … at pH 8.2”) in series [3] is reported as “− (− = <0.5 relative activity to Rd3BB (SEQ ID NO: 13))”. The “Relative Activity of GLA Variants After Challenge at pH 4.0” value (from here on “Relative Activity … at pH 4.0”) in series [4] is “− (− = <0.5 relative activity to Rd3BB (SEQ ID NO: 13))”.

B2: 358 (protein)
chain: LDNGLARTPTMGWLHWERFMCNLDCQEEPDSCISEKLFMEMAERMVSEGWKDAGYEYLCIDDCWMAPQRDSEGRLQADPQRFPHGIRQLANYVHSKGLKFGIYADVGNKTCAGFPGSFGYYDIDAQTFADWGVDLLKFDGCYCDSLENLADGYKHMSLALNRTGRSIVYSCEWPLYMWPFQKPNYTEIRQYCNHWRNFADIDDSWASIKSILDWTSFNQETIVDVAGPGGWNDPDMLVIGNFGLSWDQQVTQMALWAIMAAPLFMSNDLRHISPQAKALLQDKDVIAINQDPLGKQGYQLRKGDNFEVWERPLSGLAWAVAIINRQEIGGPRSYTIAVASLGKGVACNPACFITQLLPVKRKLGFYNWTSRLKSHINPTGTVLLQLENTMQMSLKDLL
modifications: Synthetic Polypeptide sequence of Variant No. 358 of mature Human GLA
B2: in series [1], the “Relative Activity … with Serum” value was “+ (+ = 0.5 to 1.5 relative activity over Rd3BB (SEQ ID NO: 13))”. The “Relative Activity of GLA Variants After No Challenge (NC)” value in series [2] is “+ (+ = 0.5 to 1.5 relative activity over Rd3BB (SEQ ID NO: 13))”. Moreover, the “Relative Activity … at pH 8.2” value in series [3] is reported as “++ (++ = >1.5 to 2.5 relative activity over Rd3BB (SEQ ID NO: 13))”. For the same molecule, the “Relative Activity … at pH 4.0” value in series [4] was “+ (+ = 0.5 to 1.5 relative activity over Rd3BB (SEQ ID NO: 13))”.

B3: 354 (protein)
chain: LDNGLARTPTMGWLHWERFMCNLDCQEEPDSCISEKLFMEMAERMVSEGWKDAGYEYLCIDDCWMAPQRDSEGRLQADPQRFPHGIRQLANYVHSKGLKFGIYADVGNKTCAGFPGSFGYYDIDAQTFADWGVDLLKFDGCYCDSLENLADGYKHMSLALNRTGRSIVYSCEWPLYMWPFQKPNYTEIRQYCNHWRNFADIDDSWASIKSILDWTSFNQETIVDVAGPGGWNDPDMLVIGNFGLSWNQQVTQMALWAIMAAPLFMSNDLRHISPQAKALLQDKDVIAINQDPLGKQGYQLRQGDNFEVWERPLSGLAWAVAIINRQEIGGPRSYTIAVASLGKGVACNPACFITQLLPVKRKLGLYNWTSRLKSHINPTGTVLLQLENTMQMSLKDLL
modifications: Synthetic Polypeptide sequence of Variant No. 354 of mature Human GLA
Turning to B3, the “Relative Activity … with Serum” value in series [1] was “+ (+ = 0.5 to 1.5 relative activity over Rd3BB (SEQ ID NO: 13))”. Also, in series [2], the “Relative Activity of GLA Variants After No Challenge (NC)” value was “− (− = <0.5 relative activity to Rd3BB (SEQ ID NO: 13))”. Besides, the “Relative Activity … at pH 8.2” value in series [3] is on record as “+ (+ = 0.5 to 1.5 relative activity over Rd3BB (SEQ ID NO: 13))”. Moreover, in series [4], the “Relative Activity … at pH 4.0” value is given as “+ (+ = 0.5 to 1.5 relative activity over Rd3BB (SEQ ID NO: 13))”.

B4: 356 (protein)
chain: LDNGLARTPTMGWLHWERFMCNLDCQEEPDSCISEKLFMEMAERMVSEGWKDAGYEYLCIDDCWMAPQRDSEGRLQADPQRFPHGIRQLANYVHSKGLKFGIYADVGNKTCAGFPGSFGYYDIDAQTFADWGVDLLKFDGCYCDSLENLADGYKHMSLALNRTGRSIVYSCEWPLYMWPFQKPNYTEIRQYCNHWRNFADIDDSWASIKSILDWTSFNQETIVDVAGPGGWNDPDMLVIGNFGLSWDQQVTQMALWAIMAAPLFMSNDLRHISPQAKALLQDKDVIAINQDPLGKQGYQLRKGDNFEVWERPLSGLAWAVAIINRQEIGGPRSYTIAVASLGKGVACNPACFITQLLPVKRKLGFYNWTSRLKSHINPTGTVLLQLENTMQMSLKDLL
modifications: Synthetic Polypeptide sequence of Variant No. 356 of mature Human GLA
As to B4, in series [1], the “Relative Activity … with Serum” value was “+ (+ = 0.5 to 1.5 relative activity over Rd3BB (SEQ ID NO: 13))”. In series [2], the “Relative Activity of GLA Variants After No Challenge (NC)” value is “+ (+ = 0.5 to 1.5 relative activity over Rd3BB (SEQ ID NO: 13))”. Further, the “Relative Activity … at pH 8.2” value in series [3] is recorded as “++ (++ = >1.5 to 2.5 relative activity over Rd3BB (SEQ ID NO: 13))”. The “Relative Activity … at pH 4.0” value in series [4] was “+ (+ = 0.5 to 1.5 relative activity over Rd3BB (SEQ ID NO: 13))”.

B5: 355 (protein)
chain: LDNGLARTPTMGWLHWERFMCNLDCQEEPDSCISEKLFMEMAERMVSEGWKDAGYEYLCIDDCWMAPQRDSEGRLQADPQRFPHGIRQLANYVHSKGLKFGIYADVGNKTCAGFPGSFGYYDIDAQTFADWGVDLLKFDGCYCDSLENLADGYKHMSLALNRTGRSIVYSCEWPLYMWPFQKPNYTEIRQYCNHWRNFADIDDSWASIKSILDWTSFNQETIVDVAGPGGWNDPDMLVIGNFGLSWDQQVTQMALWAIMAAPLFMSNDLRHISPQAKALLQDKDVIAINQDPLGKQGYQLRQGDNFEVWERPLSGLAWAVAIINRQEIGGPRSYTIAVASLGDGVACNPACFITQLLPVKRKLGFYNWTSRLKSHVNPTGTVLLQLENTMQMSLKDLL
modifications: Synthetic Polypeptide sequence of Variant No. 355 of mature Human GLA
With B5, the “Relative Activity … with Serum” value in series [1] is “+ (+ = 0.5 to 1.5 relative activity over Rd3BB (SEQ ID NO: 13))”. Also, in series [2], the “Relative Activity of GLA Variants After No Challenge (NC)” value is reported as “+ (+ = 0.5 to 1.5 relative activity over Rd3BB (SEQ ID NO: 13))”. In addition, the “Relative Activity … at pH 8.2” value in series [3] is “++ (++ = >1.5 to 2.5 relative activity over Rd3BB (SEQ ID NO: 13))”. In series [4], the “Relative Activity … at pH 4.0” value was “++ (++ = >1.5 to 2.5 relative activity over Rd3BB (SEQ ID NO: 13))”.

B6: 357 (protein)
chain: LDNGLARTPTMGWLHWERFMCNLDCQEEPDSCISEKLFMEMAERMVSEGWKDAGYEYLCIDDCWMAPQRDSEGRLQADPQRFPHGIRQLANYVHSKGLKFGIYADVGNKTCAGFPGSFGYYDIDAQTFADWGVDLLKFDGCYCDSLENLADGYKHMSLALNRTGRSIVYSCEWPLYMWPFQKPNYTEIRQYCNHWRNFADIDDSWASIKSILDWTSFNQETIVDVAGPGGWNDPDMLVIGNFGLSWDQQVTQMALWAIMAAPLFMSNDLRHISPQAKALLQDKDVIAINQDPLGKQGYQLRKGDNFEVWERPLSGLAWAVAVINRQEIGGPRSYTIAVASLGKGVACNPACFITQLLPVKRKLGFYNWTSRLKSHVNPTGTVLLQLENTMQMSLKDLL
modifications: Synthetic Polypeptide sequence of Variant No. 357 of mature Human GLA
B6: the “Relative Activity … with Serum” value in series [1] is on record as “+ (+ = 0.5 to 1.5 relative activity over Rd3BB (SEQ ID NO: 13))”. Also, the “Relative Activity of GLA Variants After No Challenge (NC)” value in series [2] is “+ (+ = 0.5 to 1.5 relative activity over Rd3BB (SEQ ID NO: 13))”. Besides, in series [3], the “Relative Activity … at pH 8.2” value was “+++ (+++ = >2.5 relative activity over Rd3BB (SEQ ID NO: 13))”. Besides, in series [4], the “Relative Activity … at pH 4.0” value was “++ (++ = >1.5 to 2.5 relative activity over Rd3BB (SEQ ID NO: 13))”.

B7: 296 (protein)
chain: LDNGLARTPTMGWLHWERFMCNLDCQEEPDSCISEKLFMEMAELMVSEGWKDAGYEYLCIDDCWMTPQRDSEGRLQADPQRFPHGIRQLANYVHSKGLKLGIYADVGNKTCAGFPGSFGYYDIDAQTFADWGVDLLKFDGCYCDSLENLADGYKHMSLALNRTGRSIVYSCEWPLYMWPFQKPNYTEIRQYCNHWRNFADIDDSWASIKSILDWTSRNQERIVDVAGPGGWNDPDMLVIGNFGLSWNQQVTQMALWAIMAAPLFMSNDLRHISPQAKALLQDKDVIAINQDPLGKQGYQLRQGDNFEVWERPLSGDAWAVAIINRQEIGGPRSYTIPVASLGGGVACNPGCFITQLLPVKRKLGFYNWTSRLKSHINPTGTVLLQLENTMQMSLKDLL
modifications: Synthetic Polypeptide sequence of Variant No. 296 of mature Human GLA
With B7, the “Relative Activity … with Serum” value in series [1] is “+ (+ = 0.5 to 1.5 relative activity over Rd3BB (SEQ ID NO: 13))”. Also, in series [2], the “Relative Activity of GLA Variants After No Challenge (NC)” value is “+ (+ = 0.5 to 1.5 relative activity over Rd3BB (SEQ ID NO: 13))”. In addition, the “Relative Activity … at pH 8.2” value in series [3] is “− (− = <0.5 relative activity to Rd3BB (SEQ ID NO: 13))”. Also, the “Relative Activity … at pH 4.0” value in series [4] was “− (− = <0.5 relative activity to Rd3BB (SEQ ID NO: 13))”.
